# Source: paper PMC6768852
# Assays:
# Assay in all cases: EMSA
# Conditions in all cases: EMSA: 100 pM RNA, 10 mM Tris, 100 mM NaCl, 0.1 mM EDTA, 0.01 mg/mL tRNA, 50 ug/mL heparin, 0.01% IGEPAL CA630, room temperature, 3 h; pH not stated
# IMP2 KH34 double VL MUT = IMP2 KH34 double VL MUT (UniProt Q9Y6M1)
# IMP2 KH3 VL MUT (KH34) = IMP2 KH3 VL MUT (KH34) (UniProt Q9Y6M1)
# IMP2 KH4 VL MUT (KH34) = IMP2 KH4 VL MUT (KH34) (UniProt Q9Y6M1)
# IMP2 KH4 VL MUT (KH34), sequence (Q9Y6M1 whole entry): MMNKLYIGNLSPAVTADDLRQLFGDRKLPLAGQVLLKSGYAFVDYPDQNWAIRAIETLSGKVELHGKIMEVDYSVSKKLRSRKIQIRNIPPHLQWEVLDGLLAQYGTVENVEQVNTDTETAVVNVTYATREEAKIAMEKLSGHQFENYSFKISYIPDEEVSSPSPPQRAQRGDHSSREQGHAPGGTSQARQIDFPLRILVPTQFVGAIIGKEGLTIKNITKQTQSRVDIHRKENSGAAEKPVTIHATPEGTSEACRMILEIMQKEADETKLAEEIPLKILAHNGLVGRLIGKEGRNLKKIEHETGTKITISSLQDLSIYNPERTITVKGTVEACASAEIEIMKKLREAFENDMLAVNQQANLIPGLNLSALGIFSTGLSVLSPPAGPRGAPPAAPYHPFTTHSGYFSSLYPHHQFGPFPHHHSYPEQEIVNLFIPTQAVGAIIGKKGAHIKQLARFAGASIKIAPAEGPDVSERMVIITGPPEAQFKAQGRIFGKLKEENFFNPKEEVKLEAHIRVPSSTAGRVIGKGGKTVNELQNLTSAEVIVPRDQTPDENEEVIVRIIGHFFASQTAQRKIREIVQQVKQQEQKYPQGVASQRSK
# IMP2 KH3 VL MUT (KH34), sequence (Q9Y6M1 425-581): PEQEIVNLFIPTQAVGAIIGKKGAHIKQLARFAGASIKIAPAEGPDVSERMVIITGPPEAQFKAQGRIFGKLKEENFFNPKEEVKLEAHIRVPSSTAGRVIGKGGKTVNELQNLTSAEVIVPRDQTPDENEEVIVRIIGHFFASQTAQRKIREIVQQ
# IMP2 KH34 double VL MUT, sequence (Q9Y6M1 whole entry): as the sequence (Q9Y6M1 whole entry) above
sequence,measurement,setting,value
ACCGGACUGUUACCAACACCCACACCCC [C28 beta-actin zipcode WT],Kd,IMP2 KH34 double VL MUT,26.5 nM
same,Kd,IMP2 KH3 VL MUT (KH34),7.3 nM
same,Kd,IMP2 KH4 VL MUT (KH34),346 nM
